Laboratory results as given in article PMC7994445.

How the values were obtained:
[1] = target: PfActin-1 filaments (Plasmodium falciparum) (UniProt Q8I4X0)
[2] = target: rabbit skeletal actin filaments (rabbit) (UniProt P68135)
[3] = target: smooth muscle actin filaments (UniProt P62736)

Chain of Full-length phosphorylated smooth muscle myosin (P10587 whole entry, looked up): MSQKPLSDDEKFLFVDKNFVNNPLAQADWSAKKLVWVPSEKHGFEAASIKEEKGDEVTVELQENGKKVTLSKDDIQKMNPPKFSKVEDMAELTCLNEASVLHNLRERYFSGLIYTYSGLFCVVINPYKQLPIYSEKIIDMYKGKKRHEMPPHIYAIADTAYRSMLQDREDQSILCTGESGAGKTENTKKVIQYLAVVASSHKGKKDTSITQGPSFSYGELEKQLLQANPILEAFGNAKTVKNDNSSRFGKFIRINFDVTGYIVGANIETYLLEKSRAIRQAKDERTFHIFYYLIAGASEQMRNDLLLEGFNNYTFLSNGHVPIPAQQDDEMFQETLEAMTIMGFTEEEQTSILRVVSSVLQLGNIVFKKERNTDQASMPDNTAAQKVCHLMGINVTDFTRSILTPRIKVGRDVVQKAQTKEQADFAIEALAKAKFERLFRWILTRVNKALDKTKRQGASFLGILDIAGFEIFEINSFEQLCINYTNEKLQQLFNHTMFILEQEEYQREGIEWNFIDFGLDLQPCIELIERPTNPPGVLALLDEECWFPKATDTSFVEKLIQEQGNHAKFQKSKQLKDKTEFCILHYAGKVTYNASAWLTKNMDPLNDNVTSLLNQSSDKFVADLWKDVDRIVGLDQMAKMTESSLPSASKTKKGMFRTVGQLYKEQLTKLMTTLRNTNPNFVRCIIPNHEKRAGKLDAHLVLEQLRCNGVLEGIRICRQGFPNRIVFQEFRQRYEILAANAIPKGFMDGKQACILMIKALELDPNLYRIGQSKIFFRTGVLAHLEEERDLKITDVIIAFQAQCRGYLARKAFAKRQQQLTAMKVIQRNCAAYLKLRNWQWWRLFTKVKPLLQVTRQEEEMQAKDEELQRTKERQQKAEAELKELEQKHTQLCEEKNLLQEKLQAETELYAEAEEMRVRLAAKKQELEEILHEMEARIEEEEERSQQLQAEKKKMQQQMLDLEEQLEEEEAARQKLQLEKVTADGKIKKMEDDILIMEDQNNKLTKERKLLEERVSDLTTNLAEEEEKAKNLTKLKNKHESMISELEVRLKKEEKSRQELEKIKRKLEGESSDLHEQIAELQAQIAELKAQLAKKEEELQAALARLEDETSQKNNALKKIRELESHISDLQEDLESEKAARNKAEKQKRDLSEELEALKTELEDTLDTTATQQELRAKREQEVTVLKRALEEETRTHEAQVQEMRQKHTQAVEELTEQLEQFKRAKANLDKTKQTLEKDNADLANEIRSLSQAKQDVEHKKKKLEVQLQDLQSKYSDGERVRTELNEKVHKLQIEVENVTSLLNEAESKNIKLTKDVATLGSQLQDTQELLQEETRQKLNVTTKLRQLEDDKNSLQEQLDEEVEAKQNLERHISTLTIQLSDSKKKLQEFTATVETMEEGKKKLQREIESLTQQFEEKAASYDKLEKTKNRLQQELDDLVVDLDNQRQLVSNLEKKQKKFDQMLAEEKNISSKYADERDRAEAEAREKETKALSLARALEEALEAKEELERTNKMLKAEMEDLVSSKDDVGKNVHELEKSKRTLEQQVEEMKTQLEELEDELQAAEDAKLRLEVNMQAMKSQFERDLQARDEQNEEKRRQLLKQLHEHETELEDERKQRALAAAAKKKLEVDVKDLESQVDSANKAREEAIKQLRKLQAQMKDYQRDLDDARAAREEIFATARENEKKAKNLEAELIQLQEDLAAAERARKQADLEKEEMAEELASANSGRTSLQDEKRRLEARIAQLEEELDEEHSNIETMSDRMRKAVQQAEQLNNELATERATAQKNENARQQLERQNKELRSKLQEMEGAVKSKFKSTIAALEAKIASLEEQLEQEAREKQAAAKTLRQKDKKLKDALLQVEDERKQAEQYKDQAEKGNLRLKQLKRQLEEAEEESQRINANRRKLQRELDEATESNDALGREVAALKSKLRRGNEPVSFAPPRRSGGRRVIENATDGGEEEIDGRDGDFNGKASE

PfMyoA with a C-terminal biotin tag (from UniProt Q8IDR3 1-818) (complex)
in vitro motility speed, JAS-stabilized PfAct1 filaments moved by myosin held on the coverslip, 30 °C [1]: 3.55 µm/s
in vitro motility speed, unstabilized PfAct1 filaments (no JAS) moved by myosin held on the coverslip, 30 °C [1]: 3.98 µm/s
in vitro motility speed, skeletal muscle actin filaments moved by myosin held on the coverslip, 30 °C [2]: 3.85 µm/s
in vitro motility speed, smooth muscle actin filaments moved by myosin held on the coverslip, 30 °C [3]: 4.21 µm/s

Full-length phosphorylated smooth muscle myosin (from UniProt P10587 1-1979) (complex)
in vitro motility speed, JAS-stabilized PfAct1 filaments moved by myosin adhered to the coverslip, 30 °C [1]: 0.53 µm/s
in vitro motility speed, skeletal muscle actin filaments moved by myosin adhered to the coverslip, 30 °C [2]: 0.62 µm/s
in vitro motility speed, smooth muscle actin filaments moved by myosin adhered to the coverslip, 30 °C [3]: 0.51 µm/s
